According to patent US20240092867A1 (UNIVERSITY OF CHICAGO, published 2024):

T1: placental growth factor (PlGF)-2 (human, UniProt P49763-3 19-170)
T1 construct: mature; Purchased in mature form
T1 sequence (looked up): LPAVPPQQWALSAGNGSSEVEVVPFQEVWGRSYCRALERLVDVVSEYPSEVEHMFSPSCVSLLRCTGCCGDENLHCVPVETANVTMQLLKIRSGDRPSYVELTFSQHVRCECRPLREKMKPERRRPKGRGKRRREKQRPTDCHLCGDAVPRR

T2: recombinant human syndecan-4 (human, UniProt P31431 19-145, limits assumed)
T2 construct: Histidine tag of unstated position and length
T2 sequence (looked up): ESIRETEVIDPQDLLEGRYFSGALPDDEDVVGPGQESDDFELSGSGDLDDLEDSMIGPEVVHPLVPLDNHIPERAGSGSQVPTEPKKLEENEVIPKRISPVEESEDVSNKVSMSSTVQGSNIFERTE

T3: recombinant human syndecan-1 (human, UniProt P18827 23-254, limits assumed)
T3 construct: Histidine tag of unstated position and length
T3 sequence (looked up): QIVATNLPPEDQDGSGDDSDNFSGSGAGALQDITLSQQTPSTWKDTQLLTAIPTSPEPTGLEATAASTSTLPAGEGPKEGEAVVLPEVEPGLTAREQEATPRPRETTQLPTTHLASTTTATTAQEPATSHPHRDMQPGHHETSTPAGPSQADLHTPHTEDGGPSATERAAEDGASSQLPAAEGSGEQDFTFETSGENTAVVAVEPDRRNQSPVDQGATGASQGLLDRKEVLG

T4: placental growth factor (PlGF)-1 (human, UniProt P49763-2 19-149)
T4 construct: mature; Purchased in mature form
T4 sequence (looked up): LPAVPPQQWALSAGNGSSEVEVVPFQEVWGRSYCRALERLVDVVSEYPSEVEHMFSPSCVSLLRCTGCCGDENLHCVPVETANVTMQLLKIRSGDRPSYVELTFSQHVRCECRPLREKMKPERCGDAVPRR

T5: vascular endothelial growth factor (VEGF)-A121 (human, UniProt P15692-9 27-147)
T5 construct: mature; Purchased in mature form, not glycosylated
T5 sequence (looked up): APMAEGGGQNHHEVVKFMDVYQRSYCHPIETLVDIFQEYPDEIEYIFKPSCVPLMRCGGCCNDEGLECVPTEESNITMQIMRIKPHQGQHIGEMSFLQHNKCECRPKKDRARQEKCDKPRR


How the values were obtained:
[1] = biological target: T6, platelet-derived growth factor (PDGF)-BB (human, UniProt P01127 82-190); experiment: ELISA, HBD peptides
T6 construct: mature; Purchased in mature form
T6 sequence (P01127 82-190): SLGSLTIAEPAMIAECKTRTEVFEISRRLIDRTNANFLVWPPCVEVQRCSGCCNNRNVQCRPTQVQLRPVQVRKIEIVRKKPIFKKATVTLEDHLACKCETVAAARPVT

[2] = biological target: T7, vascular endothelial growth factor (VEGF)-A165 (human, UniProt P15692-4 27-191); experiment: ELISA, HBD peptides
T7 construct: mature; Purchased in mature form, not glycosylated
Target sequence in this assay (P15692 other isoform, or with tags, fused parts or gaps limits assumed): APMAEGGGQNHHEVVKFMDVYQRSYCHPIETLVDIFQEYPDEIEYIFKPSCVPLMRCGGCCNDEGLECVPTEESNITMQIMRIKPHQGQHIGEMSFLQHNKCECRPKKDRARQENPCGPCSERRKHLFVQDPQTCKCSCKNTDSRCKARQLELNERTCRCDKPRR

[3] = biological target: T8, fibroblast growth factor (FGF)-2 (human, UniProt P09038 143-288); experiment: ELISA, HBD peptides
T8 construct: mature; Purchased in mature form
T8 sequence (P09038 143-288): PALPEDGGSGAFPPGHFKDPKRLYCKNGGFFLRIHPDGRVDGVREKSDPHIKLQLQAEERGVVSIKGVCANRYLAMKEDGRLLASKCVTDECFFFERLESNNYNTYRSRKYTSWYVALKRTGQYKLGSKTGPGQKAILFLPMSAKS

[4] = biological target: T9, laminin-111 (human, UniProt P25391 18-3075; P07942 22-1786; P11047 34-1609); experiment: ELISA, GF coated, laminin 10 nM
T9 construct: Full-length recombinant human laminin isoform (BioLamina); Chain composition is read from the isoform name
Protocol: (§1) ELISA tests were performed as previously reported. In brief, ELISA plates (med-binding, Greiner Bio-One) were coated with 50 nM GFs at 37° C. for more than 2 hrs. […] Bound laminin was detected with rabbit anti-human laminin γ1 chain antibody (1:1000 dilution, Assay biotech) or rabbit anti-human laminin α3 chain antibody (1:1000 dilution, Assay biotech). After incubation with biotinylated anti-rabbit antibody for 60 min at room temperature (RT), HRP conjugated streptavidin (Jackson ImmunoResearch) was added. After 60 min of incubation at RT, 50 μL TMB substrate (Sigma-Aldrich) was added. The reactions were stopped by adding 25 μL of 2 N H₂SO₄. Subsequently, the absorbance at 450 nm was measured with a reference of 570 nm.

[5] = biological target: T10, laminin-211 (human, UniProt P24043 23-3122; P07942 22-1786; P11047 34-1609); experiment: ELISA, GF coated, laminin 10 nM
T10 construct: Full-length recombinant human laminin isoform (BioLamina); chains read from the isoform name
Protocol: as §1

[6] = biological target: T11, laminin-332 (human, UniProt Q16787 28-1724; Q13751 18-1172; Q13753 22-1193, limits assumed); experiment: ELISA, GF coated, laminin 10 nM
T11 construct: Full-length recombinant human laminin isoform (BioLamina); chains read from the isoform name
T11 sequence (Q16787 other isoform, or with tags, fused parts or gaps limits assumed, chain 1 of 3): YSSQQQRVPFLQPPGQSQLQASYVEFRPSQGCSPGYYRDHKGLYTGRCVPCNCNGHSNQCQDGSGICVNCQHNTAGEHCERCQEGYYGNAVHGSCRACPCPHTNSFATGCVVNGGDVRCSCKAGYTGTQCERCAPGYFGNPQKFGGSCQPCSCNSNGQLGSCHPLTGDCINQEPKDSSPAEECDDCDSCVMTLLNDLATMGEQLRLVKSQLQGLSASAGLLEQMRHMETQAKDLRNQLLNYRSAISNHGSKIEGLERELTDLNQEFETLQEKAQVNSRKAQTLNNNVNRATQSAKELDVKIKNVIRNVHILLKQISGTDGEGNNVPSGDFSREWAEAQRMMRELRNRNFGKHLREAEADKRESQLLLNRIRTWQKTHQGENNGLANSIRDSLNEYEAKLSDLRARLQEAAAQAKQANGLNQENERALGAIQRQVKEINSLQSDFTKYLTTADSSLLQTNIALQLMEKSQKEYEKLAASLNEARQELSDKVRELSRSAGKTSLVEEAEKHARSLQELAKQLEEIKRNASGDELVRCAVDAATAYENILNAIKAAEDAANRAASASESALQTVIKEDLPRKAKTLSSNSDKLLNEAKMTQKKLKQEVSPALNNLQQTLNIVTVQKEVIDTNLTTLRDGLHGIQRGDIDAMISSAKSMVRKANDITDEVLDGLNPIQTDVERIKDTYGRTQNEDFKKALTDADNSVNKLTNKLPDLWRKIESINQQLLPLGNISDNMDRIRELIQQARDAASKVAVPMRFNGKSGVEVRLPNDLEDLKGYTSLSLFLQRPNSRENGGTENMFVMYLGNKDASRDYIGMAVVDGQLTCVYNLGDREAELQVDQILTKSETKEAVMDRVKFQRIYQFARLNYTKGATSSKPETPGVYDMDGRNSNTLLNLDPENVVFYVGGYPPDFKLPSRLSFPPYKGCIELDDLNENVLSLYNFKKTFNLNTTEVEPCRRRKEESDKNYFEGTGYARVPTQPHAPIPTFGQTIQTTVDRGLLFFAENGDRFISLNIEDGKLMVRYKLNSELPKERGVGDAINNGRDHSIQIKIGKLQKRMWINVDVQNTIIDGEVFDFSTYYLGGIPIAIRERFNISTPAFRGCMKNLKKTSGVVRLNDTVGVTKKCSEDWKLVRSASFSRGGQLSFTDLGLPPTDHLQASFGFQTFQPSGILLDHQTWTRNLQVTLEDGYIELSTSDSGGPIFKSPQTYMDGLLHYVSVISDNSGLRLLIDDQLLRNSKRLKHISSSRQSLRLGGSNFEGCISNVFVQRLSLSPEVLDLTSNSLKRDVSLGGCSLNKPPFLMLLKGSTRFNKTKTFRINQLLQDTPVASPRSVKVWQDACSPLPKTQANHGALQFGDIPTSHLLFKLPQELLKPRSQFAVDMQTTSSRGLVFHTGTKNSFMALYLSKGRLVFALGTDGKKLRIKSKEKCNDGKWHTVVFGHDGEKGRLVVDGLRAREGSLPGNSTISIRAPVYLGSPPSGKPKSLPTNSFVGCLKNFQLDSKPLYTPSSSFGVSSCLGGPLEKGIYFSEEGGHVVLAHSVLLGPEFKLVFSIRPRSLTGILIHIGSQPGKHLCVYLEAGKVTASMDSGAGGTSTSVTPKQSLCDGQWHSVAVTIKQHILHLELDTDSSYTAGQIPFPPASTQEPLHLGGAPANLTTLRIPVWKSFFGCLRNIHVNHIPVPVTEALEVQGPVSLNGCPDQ
T11 sequence (Q13751 18-1172 limits assumed, chain 2 of 3): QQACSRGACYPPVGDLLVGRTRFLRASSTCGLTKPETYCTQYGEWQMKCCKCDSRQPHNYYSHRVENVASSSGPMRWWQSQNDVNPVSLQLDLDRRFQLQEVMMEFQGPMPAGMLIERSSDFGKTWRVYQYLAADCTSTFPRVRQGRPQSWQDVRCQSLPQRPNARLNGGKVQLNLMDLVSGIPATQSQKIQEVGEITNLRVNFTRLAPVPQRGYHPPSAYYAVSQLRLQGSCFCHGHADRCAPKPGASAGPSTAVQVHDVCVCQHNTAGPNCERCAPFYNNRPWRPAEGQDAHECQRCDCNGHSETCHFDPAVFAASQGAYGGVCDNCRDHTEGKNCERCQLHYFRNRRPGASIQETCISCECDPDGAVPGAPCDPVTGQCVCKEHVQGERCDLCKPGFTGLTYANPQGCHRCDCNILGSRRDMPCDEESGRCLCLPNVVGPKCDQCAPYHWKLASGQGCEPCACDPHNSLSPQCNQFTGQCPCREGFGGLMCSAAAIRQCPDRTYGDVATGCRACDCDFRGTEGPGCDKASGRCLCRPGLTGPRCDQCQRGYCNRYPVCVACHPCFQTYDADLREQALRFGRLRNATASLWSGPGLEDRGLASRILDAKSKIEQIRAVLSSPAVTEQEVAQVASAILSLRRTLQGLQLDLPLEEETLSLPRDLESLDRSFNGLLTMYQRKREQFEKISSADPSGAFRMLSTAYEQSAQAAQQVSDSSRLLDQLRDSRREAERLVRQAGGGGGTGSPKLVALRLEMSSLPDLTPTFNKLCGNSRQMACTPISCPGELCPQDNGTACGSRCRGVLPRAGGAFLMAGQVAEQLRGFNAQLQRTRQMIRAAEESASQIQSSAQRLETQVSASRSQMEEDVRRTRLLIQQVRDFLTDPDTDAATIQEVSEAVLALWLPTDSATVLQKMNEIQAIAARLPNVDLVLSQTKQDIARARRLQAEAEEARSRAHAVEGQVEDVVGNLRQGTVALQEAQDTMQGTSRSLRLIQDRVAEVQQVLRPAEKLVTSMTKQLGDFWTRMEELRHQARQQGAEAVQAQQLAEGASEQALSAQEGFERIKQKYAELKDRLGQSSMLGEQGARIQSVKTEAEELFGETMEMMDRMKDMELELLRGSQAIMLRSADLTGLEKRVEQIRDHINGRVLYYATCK
T11 sequence (Q13753 22-1193 limits assumed, chain 3 of 3): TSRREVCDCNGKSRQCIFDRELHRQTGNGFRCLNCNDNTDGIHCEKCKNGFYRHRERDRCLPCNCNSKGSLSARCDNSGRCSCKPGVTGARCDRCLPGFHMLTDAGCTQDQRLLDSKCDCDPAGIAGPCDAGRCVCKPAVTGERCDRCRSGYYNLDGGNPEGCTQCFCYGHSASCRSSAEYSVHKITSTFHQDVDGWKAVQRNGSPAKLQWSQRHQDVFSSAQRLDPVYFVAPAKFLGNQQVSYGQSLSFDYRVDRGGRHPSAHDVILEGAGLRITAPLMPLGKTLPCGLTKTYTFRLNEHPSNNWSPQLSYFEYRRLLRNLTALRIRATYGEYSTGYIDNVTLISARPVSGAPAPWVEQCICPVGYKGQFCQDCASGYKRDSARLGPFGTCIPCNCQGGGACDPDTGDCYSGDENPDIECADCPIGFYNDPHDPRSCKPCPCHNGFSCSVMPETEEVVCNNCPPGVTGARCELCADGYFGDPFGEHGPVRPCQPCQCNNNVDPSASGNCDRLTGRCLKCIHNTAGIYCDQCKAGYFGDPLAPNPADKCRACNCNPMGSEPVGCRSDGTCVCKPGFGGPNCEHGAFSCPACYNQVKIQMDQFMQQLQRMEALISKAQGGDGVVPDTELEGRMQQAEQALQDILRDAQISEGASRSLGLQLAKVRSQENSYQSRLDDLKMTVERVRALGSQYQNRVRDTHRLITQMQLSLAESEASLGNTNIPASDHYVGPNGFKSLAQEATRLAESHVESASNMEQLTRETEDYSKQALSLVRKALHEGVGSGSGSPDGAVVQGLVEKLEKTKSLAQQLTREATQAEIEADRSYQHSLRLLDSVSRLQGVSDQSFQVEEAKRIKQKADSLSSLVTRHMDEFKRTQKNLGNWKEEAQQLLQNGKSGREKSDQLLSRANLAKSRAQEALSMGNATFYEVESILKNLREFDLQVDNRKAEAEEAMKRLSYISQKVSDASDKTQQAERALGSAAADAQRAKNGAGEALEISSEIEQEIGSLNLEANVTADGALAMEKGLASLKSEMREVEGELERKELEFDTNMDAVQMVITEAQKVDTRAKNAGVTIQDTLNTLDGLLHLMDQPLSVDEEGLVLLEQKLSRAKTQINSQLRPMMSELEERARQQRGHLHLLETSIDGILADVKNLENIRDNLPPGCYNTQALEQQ
Protocol: as §1

[7] = biological target: T12, laminin-521 (human, UniProt O15230 36-3695; P55268 33-1798; P11047 34-1609); experiment: ELISA, GF coated, laminin 10 nM
T12 construct: Full-length recombinant human laminin isoform (BioLamina); chains read from the isoform name
Protocol: as §1

[8] = biological target: T13, laminin-421 (human, UniProt Q16363 25-1823; P55268 33-1798; P11047 34-1609); experiment: ELISA, GF coated, laminin 10 nM
T13 construct: Full-length recombinant human laminin isoform (BioLamina); chains read from the isoform name
Protocol: as §1

[9] = biological target: T14, laminin-411 (human, UniProt Q16363 25-1823; P07942 22-1786; P11047 34-1609); experiment: ELISA, GF coated, laminin 10 nM
T14 construct: Full-length recombinant human laminin isoform (BioLamina); chains read from the isoform name
Protocol: as §1

[10] = biological target: T15, laminin-511 (human, UniProt O15230 36-3695; P07942 22-1786; P11047 34-1609); experiment: ELISA, GF coated, laminin 10 nM
T15 construct: Full-length recombinant human laminin isoform (BioLamina); chains read from the isoform name
Protocol: as §1

[11] = biological target: T6, platelet-derived growth factor (PDGF)-BB; experiment: ELISA, peptide coated, GF 1 µg/mL
Protocol: (§2) (A) The location of laminin-derived peptides in the LG domain of laminin α3, α4, and α5 chains. (B-F) Affinity of heparin and GFs against chemically synthesized peptides derived from the LG domain of laminin α3, α4, and α5 chains. ELISA plates were coated with 10 μg/mL laminin peptide and further incubated with (B) biotinylated heparin, (C) VEGF-A165 and VEGF-A121, (D) PlGF-2 and PlGF-1, (E) PDGF-BB, or (F) FGF-2. Concentrations were 1 μg/mL for GFs and 10 μg/mL for heparin. Bound heparin was detected with streptavidin, and bound GFs with a specific antibody for each GF (n=4, mean±SEM). Statistical analyses were done using the Mann-Whitney U test by comparing the signals obtained from the laminin peptide- and the BSA-coated wells. *p<0.05, **p<0.01.
(§3) ELISA tests were performed as described above. […] 1 μg/mL of BSA served as non-binding protein control. After blocking with 2% BSA PBS-0.05% Tween 20 (PBS-T) solution, 1 μg/mL of the recombinant human proteins (VEGF-A121, VEGF-A165, PlGF-1, PlGF-2, PDGF-BB or FGF-2) or 10 μg/mL of biotinylated heparin (Sigma-Aldrich) were added. Bound GF was detected with biotinylated antibodies for human VEGF, PlGF, PDGF-BB, or FGF-2 (R&D Systems). The antibodies were detected by streptavidin-HRP (R&D Systems).

[12] = biological target: T7, vascular endothelial growth factor …; experiment: ELISA, peptide coated, GF 1 µg/mL
Protocol: as §2, §3

[13] = biological target: T1, placental growth factor (PlGF)-2; experiment: ELISA, peptide coated, GF 1 µg/mL
Protocol: as §2, §3

[14] = biological target: T8, fibroblast growth factor (FGF)-2; experiment: ELISA, peptide coated, GF 1 µg/mL
Protocol: as §2, §3

[15] = biological target: T16, recombinant human syndecan-2 (human, UniProt P34741 19-144, limits assumed); experiment: ELISA, peptide coated, syndecan 1 µg/mL, anti-His detection
T16 construct: Histidine tag of unstated position and length
T16 sequence (P34741 19-144 limits assumed): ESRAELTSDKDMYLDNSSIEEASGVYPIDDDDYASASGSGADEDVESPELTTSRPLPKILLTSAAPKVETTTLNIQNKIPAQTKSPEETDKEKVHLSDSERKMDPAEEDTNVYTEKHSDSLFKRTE
Protocol: (§4) ELISA tests were performed as described above. In brief, ELISA plates were coated with 1 μg/mL laminin peptide (sequences are described in Table 1, chemically synthesized by Genscript) in PBS for 2 hrs at 37° C. 1 μg/mL of BSA served as non-binding protein control. After blocking with 2% BSA PBS-T solution, 1 μg/mL of the recombinant human syndecan-1, syndecan-2, syndecan-3, syndecan-4 (all syndecan proteins are histidine-tagged; SinoBiological) were added. Bound GF was detected with anti-histidine tag antibody (1:1000 dilution, BioLegend).

[16] = biological target: T2, recombinant human syndecan-4; experiment: as above
Protocol: as §4

[17] = biological target: T3, recombinant human syndecan-1; experiment: as above
Protocol: as §4

[18] = biological target: T4, placental growth factor (PlGF)-1; experiment: ELISA, peptide coated
Protocol: as §2, §3

[19] = biological target: T5, vascular endothelial growth factor …; experiment: ELISA, peptide coated
Protocol: as §2, §3

[20] = biological target: T17, human plasma-derived vWF (human, UniProt P04275 764-2813); experiment: ELISA, GF coated 50 nM, vWF 1 µg/mL
T17 construct: mature; also called plasma-derived purified vWF; von Willebrand factor
Protocol: ELISA tests were performed as previously reported1. In brief, ELISA plates (med-binding, Greiner Bio-One) were coated with 50 nM GFs at 37° C. for 2 hrs. […] Then, HRP conjugated goat anti-rabbit antibody (Jackson ImmunoResearch) was added. After 60 min of incubation, 50 μL TMB substrate (Sigma-Aldrich) was added. The reaction was stopped by adding 25 μL of 2N H2SO4. Subsequently, the absorbance at 450 nm was measured and subtracted the absorbance at 570 nm.

Binder | binding result [1] | binding result [2] | binding result [3] | binding result [4] | binding result [5] | binding result [6] | binding result [7] | binding result [8] | binding result [9] | binding result [10] | other results
YIGLKDRKRPSELLRIASQVKYA (The entry already carries the substitution) [vWF A1 HBD R1341L] | no binding | no binding | no binding |  |  |  |  |  |  |  | 
YIGLKDRKRPSELWRIASQVKYA (The entry already carries the substitution) [vWF A1 HBD R1341W] | no binding | no binding | no binding |  |  |  |  |  |  |  | 
YIGLKDRKRPSELQRIASQVKYA (The entry already carries the substitution) [vWF A1 HBD R1341Q] | no binding | no binding | no binding |  |  |  |  |  |  |  | 
YIGLKDRKRPSELPRIASQVKYA (The entry already carries the substitution) [vWF A1 HBD R1341P] | no binding | no binding | no binding |  |  |  |  |  |  |  | 
YIGLKDRKRPSELSRIASQVKYA (The entry already carries the substitution) [vWF A1 HBD R1341S] | no binding | no binding | no binding |  |  |  |  |  |  |  | 
bone morphogenetic protein (BMP)-4 (ligand, UniProt P12644 293-408, looked up, mature; Purchased in mature form) SPKHHSQRARKKNKNCRRHSLYVDFSDVGWNDWIVAPPGYQAFYCHGDCPFPLADHLNSTNHAIVQTLVNSVNSSIPKACCVPTELSAISMLYLDEYDKVVLKNYQEMVVEGCGCR |  |  |  | no binding (tested: A450 0.1) | no binding (tested: A450 0.1) | no binding (tested: A450 0.1) | no binding (tested: A450 0.1) | no binding (tested: A450 0.1) | no binding (tested: A450 0.1) | no binding (tested: A450 0.1) | 
RLVFALGTDGKKLRIKSKEKCNDGK (Chemically synthesized (Genscript)) [laminin α3 3043-3067 peptide (LG4)] |  |  |  |  |  |  |  |  |  |  | binding result [11]: binds; binding result [12]: binds; binding result [13]: binds; binding result [14]: binds; binding result [15]: binds; binding result [16]: binds; binding result [17]: binds; binding result [18]: no binding (tested: 1 µg/mL); binding result [19]: no binding (tested: 1 µg/mL)
TLFLAHGRLVYMFNVGHKKLKIR (Chemically synthesized (Genscript)) [laminin α4 1521-1543 peptide (LG4)] |  |  |  |  |  |  |  |  |  |  | binding result [12]: binds; binding result [13]: binds; binding result [14]: binds; binding result [15]: binds; binding result [16]: binds; binding result [17]: binds; binding result [18]: no binding (tested: 1 µg/mL); binding result [19]: no binding (tested: 1 µg/mL)
fibroblast growth factor (FGF)-6 (ligand, UniProt P10767 38-208, looked up, mature; Purchased in mature form) SPAGTRANNTLLDSRGWGTLLSRSRAGLAGEIAGVNWESGYLVGIKRQRRLYCNVGIGFHLQVLPDGRISGTHEENPYSLLEISTVERGVVSLFGVRSALFVAMNSKGRLYATPSFQEECKFRETLLPNNYNAYESDLYQGTYIALSKYGRVKRGSKVSPIMTVTHFLPRI |  |  |  | no binding (tested: A450 0.1) | no binding (tested: A450 0.1) | no binding (tested: A450 0.1) | no binding (tested: A450 0.1) | no binding (tested: A450 0.1) | no binding (tested: A450 0.1) | no binding (tested: A450 0.1) | binding result [20]: no binding
bone morphogenetic protein (BMP)-7 (ligand, UniProt P18075 293-431, looked up, mature; Purchased in mature form) STGSKQRSQNRSKTPKNQEALRMANVAENSSSDQRQACKKHELYVSFRDLGWQDWIIAPEGYAAYYCEGECAFPLNSYMNATNHAIVQTLVHFINPETVPKPCCAPTQLNAISVLYFDDSSNVILKKYRNMVVRACGCH |  |  |  | no binding (tested: A450 0.1) | no binding (tested: A450 0.1) | no binding (tested: A450 0.1) | no binding (tested: A450 0.1) | no binding (tested: A450 0.1) | no binding (tested: A450 0.1) | no binding (tested: A450 0.1) | binding result [20]: no binding
